{
  "source": "the supplement of paper PMC9112550",
  "about": "“Optimization of the antimicrobial peptide Bac7 by deep mutational scanning” (BMC Biology, 2022);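 note: peptides expressed intracellularly from a pBAD plasmid library in pooled LB shake-flask culture, induced with 0.3% L-arabinose, DNA abundance read by NGS, three biological replicates, DESeq2 with apeglm shrinkage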",
  "data": [
    {"test_system": "Escherichia coli TOP10", "assay": "shrunken log2 fold change of peptide-encoding DNA abundance (4.5 h post-induction vs induction); higher = less antimicrobial activity (less host growth inhibition)", "conditions": "time post-induction: 4.5 h; library: site-saturation at positions 5, 18, 19, 20", "values": [
      {"sequence": "RRIRYRPPRLPRPRPRPTWDPRP", "shrunken log2 fold change": 0.114},
      {"sequence": "RRIRSRPPRLPRPRPRPLYGPRP", "shrunken log2 fold change": -0.565},
      {"sequence": "RRIRWRPPRLPRPRPRPDCKPRP", "shrunken log2 fold change": -0.0137},
      {"sequence": "RRIRKRPPRLPRPRPRPVQMPRP", "shrunken log2 fold change": 0.241},
      {"sequence": "RRIRFRPPRLPRPRPRPVRSPRP", "shrunken log2 fold change": 0.234},
      {"sequence": "RRIRGRPPRLPRPRPRPMTLPRP", "shrunken log2 fold change": 0.509},
      {"sequence": "RRIRYRPPRLPRPRPRPWTNPRP", "shrunken log2 fold change": -0.00804},
      {"sequence": "RRIRARPPRLPRPRPRPQETPRP", "shrunken log2 fold change": 0.0762},
      {"sequence": "RRIRGRPPRLPRPRPRPLLTPRP", "shrunken log2 fold change": 2.34},
      {"sequence": "RRIRKRPPRLPRPRPRPIFAPRP", "shrunken log2 fold change": 0.454},
      {"sequence": "RRIRRRPPRLPRPRPRPKSWPRP", "shrunken log2 fold change": 0.249},
      {"sequence": "RRIRTRPPRLPRPRPRPFFYPRP", "shrunken log2 fold change": -0.345},
      {"sequence": "RRIRCRPPRLPRPRPRPHDCPRP", "shrunken log2 fold change": -0.0825},
      {"sequence": "RRIRVRPPRLPRPRPRPCWYPRP", "shrunken log2 fold change": -0.544},
      {"sequence": "RRIRNRPPRLPRPRPRPYLIPRP", "shrunken log2 fold change": -0.0464},
      {"sequence": "RRIRDRPPRLPRPRPRPPAYPRP", "shrunken log2 fold change": -0.0668},
      {"sequence": "RRIRGRPPRLPRPRPRPNIIPRP", "shrunken log2 fold change": 0.0628},
      {"sequence": "RRIRARPPRLPRPRPRPWDLPRP", "shrunken log2 fold change": 0.612},
      {"sequence": "RRIRLRPPRLPRPRPRPHEGPRP", "shrunken log2 fold change": -0.00992},
      {"sequence": "RRIRCRPPRLPRPRPRPKDVPRP", "shrunken log2 fold change": 0.015},
      {"sequence": "RRIRVRPPRLPRPRPRPNGCPRP", "shrunken log2 fold change": 0.0454},
      {"sequence": "RRIRQRPPRLPRPRPRPQLCPRP", "shrunken log2 fold change": -0.0247},
      {"sequence": "RRIRQRPPRLPRPRPRPYQPPRP", "shrunken log2 fold change": -0.0272},
      {"sequence": "RRIRWRPPRLPRPRPRPINTPRP", "shrunken log2 fold change": -0.494},
      {"sequence": "RRIRRRPPRLPRPRPRPEPNPRP", "shrunken log2 fold change": -0.00852},
      {"sequence": "RRIRNRPPRLPRPRPRPENMPRP", "shrunken log2 fold change": -0.262},
      {"sequence": "RRIRKRPPRLPRPRPRPLIWPRP", "shrunken log2 fold change": 0.761},
      {"sequence": "RRIRCRPPRLPRPRPRPECWPRP", "shrunken log2 fold change": 0.669},
      {"sequence": "RRIRLRPPRLPRPRPRPEWQPRP", "shrunken log2 fold change": -0.0018},
      {"sequence": "RRIRCRPPRLPRPRPRPTIKPRP", "shrunken log2 fold change": -0.364},
      {"sequence": "RRIRSRPPRLPRPRPRPDYKPRP", "shrunken log2 fold change": -0.722},
      {"sequence": "RRIRRRPPRLPRPRPRPHGFPRP", "shrunken log2 fold change": 0.114},
      {"sequence": "RRIRWRPPRLPRPRPRPHIVPRP", "shrunken log2 fold change": -0.102},
      {"sequence": "RRIRWRPPRLPRPRPRPPFKPRP", "shrunken log2 fold change": 0.331},
      {"sequence": "RRIRKRPPRLPRPRPRPEEPPRP", "shrunken log2 fold change": 3.09},
      {"sequence": "RRIRIRPPRLPRPRPRPCWPPRP", "shrunken log2 fold change": -0.232},
      {"sequence": "RRIRQRPPRLPRPRPRPMCGPRP", "shrunken log2 fold change": 0.31},
      {"sequence": "RRIRLRPPRLPRPRPRPREQPRP", "shrunken log2 fold change": 0.134},
      {"sequence": "RRIRRRPPRLPRPRPRPHWRPRP", "shrunken log2 fold change": 0.0155},
      {"sequence": "RRIRYRPPRLPRPRPRPIHFPRP", "shrunken log2 fold change": -0.679},
      {"sequence": "RRIRGRPPRLPRPRPRPQYSPRP", "shrunken log2 fold change": 0.0802},
      {"sequence": "RRIRHRPPRLPRPRPRPYDEPRP", "shrunken log2 fold change": -0.0392},
      {"sequence": "RRIRYRPPRLPRPRPRPMQYPRP", "shrunken log2 fold change": -0.131},
      {"sequence": "RRIRMRPPRLPRPRPRPFCFPRP", "shrunken log2 fold change": 0.222},
      {"sequence": "RRIRMRPPRLPRPRPRPIWNPRP", "shrunken log2 fold change": -0.0214},
      {"sequence": "RRIRVRPPRLPRPRPRPWSMPRP", "shrunken log2 fold change": -0.014},
      {"sequence": "RRIRFRPPRLPRPRPRPGHWPRP", "shrunken log2 fold change": 0.0649},
      {"sequence": "RRIRGRPPRLPRPRPRPDMPPRP", "shrunken log2 fold change": 0.168}
    ]}
  ]
}
